Common to all, as to assay: two-hybrid
Assay [1] has as its target Gt-1 ORF3 MAPPIT (hepatitis E virus genotype 1 (Sar-55)).
The target in assay [2] is Gt-3 ORF3 KISS (hepatitis E virus genotype 3 (Kernow-C1 p6)).
Assay [3] addresses Gt-1 ORF3 KISS (hepatitis E virus genotype 1 (Sar-55)).

Results on 1 molecule are retold here after publication PMC10748205.

B1: SHANK-Associated RH Domain Interactor (natural protein)
chain: MAPPAGGAAAAASDLGSAAVLLAVHAAVRPLGAGPDAEAQLRRLQLSADPERPGRFRLELLGAGPGAVNLEWPLESVSYTIRGPTQHELQPPPGGPGTLSLHFLNPQEAQRWAVLVRGATVEGQNGSKSNSPPALGPEACPVSLPSPPEASTLKGPPPEADLPRSPGNLTEREELAGSLARAIAGGDEKGAAQVAAVLAQHRVALSVQLQEACFPPGPIRLQVTLEDAASAASAASSAHVALQVHPHCTVAALQEQVFSELGFPPAVQRWVIGRCLCVPERSLASYGVRQDGDPAFLYLLSAPREAPATGPSPQHPQKMDGELGRLFPPSLGLPPGPQPAASSLPSPLQPSWSCPSCTFINAPDRPGCEMCSTQRPCTWDPLAAAST
For the molecule B1, in assay [1], the BP/BIP stood at 61.2, the BP/PIB is 69.9 and the Value BP (bait-prey fold induction) was determined as 82.1. Further, in assay [2], the BP/BIP amounted to 25.4, the BP/PIB worked out at 101 and the Value BP (bait-prey luciferase value) was 188000. In assay [3], the BP/BIP came to 42.2, the BP/PIB worked out at 429 and the Value BP (bait-prey luciferase value) is 796000.
